Data reported in patent US20030185792A1, “Morphogen analogs of bone morphogenic proteins” (Curis, Inc., priority 1996, published 2003).
Bridge positions count the residues as written; N and C are the ends. Ends that are not written are not given here.

Key:
[1] = biological target: OP-1 receptor of ROS cells (OP-1 receptor-enriched plasma membrane fraction of ROS cells) (rat)
[2] = biological target: OP-1 receptor of ROS cells (OP-1 receptor-enriched plasma membrane fraction of ROS cells) (rat); remark: listed apart in the source
[3] = biological target: OP-1 receptor of ROS cells (OP-1 receptor-enriched plasma membrane fraction of ROS cells) (rat); assay: radioligand receptor assay, ROS cell plasma membranes
[4] = biological target: OP-1 receptor of ROS cells (OP-1 receptor-enriched plasma membrane fraction of ROS cells) (rat); assay: displacement of ^125I-soluble OP-1 from ROS cell plasma membranes
[5] = biological target: OP-1 receptor of ROS cells (OP-1 receptor-enriched plasma membrane fraction of ROS cells) (rat); remark: listed apart in the source
[6] = biological target: OP-1 receptor of ROS cells (OP-1 receptor-enriched plasma membrane fraction of ROS cells) (rat); remark: listed apart in the source
[7] = biological target: OP-1 receptor of ROS cells (OP-1 receptor-enriched plasma membrane fraction of ROS cells) (rat); remark: listed apart in the source
[8] = biological target: OP-1 receptor of ROS cells (OP-1 receptor-enriched plasma membrane fraction of ROS cells) (rat); remark: listed apart in the source

CYFDDSSNVIC (disulfide 1-11) [Peptide F2-2]
alkaline phosphatase activity of ROS cells, increase relative to soluble OP-1 alone [1]: 20%
OP-1 induced cellular alkaline phosphatase activity of ROS cells, potentiation [2]: 20%
ED50 [3]: 1 µM
ED50 [4]: 1 µM

CYFDDSSNVICKKYRS (disulfide 1-11) [Peptide F2-3]
alkaline phosphatase activity of ROS cells, increase relative to soluble OP-1 alone [1]: 20%
OP-1 induced cellular alkaline phosphatase activity of ROS cells, % increase in OP-1 response relative to the absence of peptide [5]: 53%
ED50 [3]: 10 µM
ED50 [4]: 5 µM

CFRDLGWQDWIIAPC (disulfide 1-15) [Peptide F1-2]
IC50 (peptide concentration giving 50% inhibition of the cell response to OP-1), ROS cell alkaline phosphatase [6]: 10 µM
concentration required to inhibit the binding of ^125I-labeled OP-1 [3]: 179 µM

B1: Peptide H-C2 (peptide)
peptide: CCFINPETVCC
modifications: disulfide (positions not given here); not fully specified (bridges); also: double disulfide bonds, pairing of the four Cys not given here
IC50 (peptide concentration giving 50% inhibition of cellular responsiveness to OP-1), ROS cell alkaline phosphatase [7]: 5 µM
concentration at which the binding of ^125I-labeled OP-1 to the receptor was potentiated [3]: 8 µM

CLNAISVLYFDDSSNVILKKYRNMVVRC (disulfide 1-28 (inferred)) [Peptide F2-1]
IC50 (peptide concentration inhibiting the OP-1 induced cell response by 50%), ROS cell alkaline phosphatase [8]: 8 µM
